Measured values as given in IntAct's records for PubMed 16002700.

B1: Natural killer cell receptor 2B4 (Homo sapiens), Q9BZW8 (parent)
chain: MLGQVVTLILLLLLKVYQGKGCQGSADHVVSISGVPLQLQPNSIQTKVDSIAWKKLLPSQNGFHHILKWENGSLPSNTSNDRFSFIVKNLSLLIKAAQQQDSGLYCLEVTSISGKVQTATFQVFVFESLLPDKVEKPRLQGQGKILDRGRCQVALSCLVSRDGNVSYAWYRGSKLIQTAGNLTYLDEEVDINGTHTYTCNVSNPVSWESHTLNLTQDCQNAHQEFRFWPFLVIIVILSALFLGTLACFCVWRRKRKEKQSETSPKEFLTIYEDVKDLKTRRNHEQEQTFPGGGSTIYSMIQSQSSAPTSQEPAYTLYSLIQPSRKSGSRKRNHSPSFNSTIYEVIGKSQPKAQNPARLSRKELENFDVYS

Variants of: B1
Settings: with cd48_human CD48, P09326
Chain of cd48_human CD48, P09326 (P09326 whole entry): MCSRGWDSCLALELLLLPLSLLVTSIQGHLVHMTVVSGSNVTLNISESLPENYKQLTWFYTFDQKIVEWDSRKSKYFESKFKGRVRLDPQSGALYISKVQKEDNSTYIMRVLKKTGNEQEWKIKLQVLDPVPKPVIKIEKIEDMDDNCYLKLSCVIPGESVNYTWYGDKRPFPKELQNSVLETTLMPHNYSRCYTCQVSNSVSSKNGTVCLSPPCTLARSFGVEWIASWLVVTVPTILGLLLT

effect of a mutation on the interaction	Variant
decreasing interaction	MLGQVVTLILLLLLKVYQGKGCQGSADHVVSISGVPLQLQPNSIQTKVDSIAWKKLLPSQNGFHHILKWANGSLPSNTSNDRFSFIVKNLSLLIKAAQQQDSGLYCLEVTSISGKVQTATFQVFVFESLLPDKVEKPRLQGQGKILDRGRCQVALSCLVSRDGNVSYAWYRGSKLIQTAGNLTYLDEEVDINGTHTYTCNVSNPVSWESHTLNLTQDCQNAHQEFRFWPFLVIIVILSALFLGTLACFCVWRRKRKEKQSETSPKEFLTIYEDVKDLKTRRNHEQEQTFPGGGSTIYSMIQSQSSAPTSQEPAYTLYSLIQPSRKSGSRKRNHSPSFNSTIYEVIGKSQPKAQNPARLSRKELENFDVYS [E70A]
decreasing interaction	MLGQVVTLILLLLLKVYQGKGCQGSADHVVSISGVPLQLQPNSIQTKVDSIAWKKLLPSQNGFHHILAWENGSLPSNTSNDRFSFIVKNLSLLIKAAQQQDSGLYCLEVTSISGKVQTATFQVFVFESLLPDKVEKPRLQGQGKILDRGRCQVALSCLVSRDGNVSYAWYRGSKLIQTAGNLTYLDEEVDINGTHTYTCNVSNPVSWESHTLNLTQDCQNAHQEFRFWPFLVIIVILSALFLGTLACFCVWRRKRKEKQSETSPKEFLTIYEDVKDLKTRRNHEQEQTFPGGGSTIYSMIQSQSSAPTSQEPAYTLYSLIQPSRKSGSRKRNHSPSFNSTIYEVIGKSQPKAQNPARLSRKELENFDVYS [K68A]
disrupting interaction	MLGQVVTLILLLLLKVYQGKGCQGSADHVVSISGVPLQLQPNSIQTKVDSIAWKKLLPSQNGFHHILAWANGSLPSNTSNDRFSFIVKNLSLLIKAAQQQDSGLYCLEVTSISGKVQTATFQVFVFESLLPDKVEKPRLQGQGKILDRGRCQVALSCLVSRDGNVSYAWYRGSKLIQTAGNLTYLDEEVDINGTHTYTCNVSNPVSWESHTLNLTQDCQNAHQEFRFWPFLVIIVILSALFLGTLACFCVWRRKRKEKQSETSPKEFLTIYEDVKDLKTRRNHEQEQTFPGGGSTIYSMIQSQSSAPTSQEPAYTLYSLIQPSRKSGSRKRNHSPSFNSTIYEVIGKSQPKAQNPARLSRKELENFDVYS [K68A;E70A]
